From publication PMC12604968, “Mutant NPM1 modulates PDCD4 ubiquitination degradation and facilitates leukemogenesis” (iScience, 2025)
Ends that are not written are not given here. * marks the point of attachment. Biotin = O=C1N[C@H]2[C@H](CS[C@H]2CCCCC(=O)*)N1

T1: GST-PDCD4 recombinant protein (human, UniProt Q53EL6 1-469)
T1 construct: PDCD4 (programmed cell death 4), human, amplified from cDNA of HEK293T cells and cloned into pGEX-6P-1; pGEX-6P-1 is known to add GST at the N-terminus; also called GST-tagged PDCD4; source: E. coli BL21 (DE3), purified (Glutathione Sepharose 4FF)
T1 sequence (looked up): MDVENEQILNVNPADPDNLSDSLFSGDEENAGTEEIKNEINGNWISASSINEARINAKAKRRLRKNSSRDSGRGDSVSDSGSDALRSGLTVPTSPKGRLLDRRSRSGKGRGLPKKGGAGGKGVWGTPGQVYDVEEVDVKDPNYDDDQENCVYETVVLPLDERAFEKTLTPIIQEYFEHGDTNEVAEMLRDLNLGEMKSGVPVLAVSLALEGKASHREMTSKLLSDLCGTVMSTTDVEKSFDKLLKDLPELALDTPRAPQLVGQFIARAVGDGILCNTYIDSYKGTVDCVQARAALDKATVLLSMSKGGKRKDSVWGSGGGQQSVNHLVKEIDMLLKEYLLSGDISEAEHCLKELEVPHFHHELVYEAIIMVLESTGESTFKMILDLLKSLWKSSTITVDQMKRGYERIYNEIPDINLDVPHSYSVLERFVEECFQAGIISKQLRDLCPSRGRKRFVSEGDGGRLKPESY

B1: His-tagged NPM1 N-terminal domain (NPM1-NT, aa 1-117) (domain or fragment, human, UniProt P06748 1-117, looked up)
chain: MEDSMDMDMSPLRPQNYLFGCELKADKDYHFKVDNDENEHQLSLRTVSLGAGAKDELHIVEAEAMNYEGSPIKVTLATLKMSVQPTVSLGGFEITPPVVLRLKCGSGPVHISGQHLV
notes: source: E. coli BL21 (DE3), purified (Ni-NTA)

Key:
[1] = biological target: T1, GST-PDCD4 recombinant protein; assay: pull-down; GST-PDCD4 immobilised on Glutathione Sepharose 4FF beads, incubated with purified His-tagged proteins; SDS-PAGE, Coomassie blue; conditions: both partners purified
[2] = biological target: B1; assay: pull-down; biotinylated PDCD4-NoLS peptide immobilised on streptavidin beads, incubated with purified NPM1 fragment proteins; conditions: both partners purified

binding result [1] | binding result [2] | Binder
binds |  | B1
 | binds | Biotin-EARINAKAKRRLRKNSSRDSGRG (PDCD4, human, nucleolar localization signal (NoLS); also called biotinylated PDCD4-NoLS peptides; biotin-tagged PDCD4-NoLS peptide; source: synthetic peptide, bought: GL Biochem; not shown: biotin, N-terminal, kept) [Biotin-PDCD4-NoLS peptide]
